From the supplement of paper PMC9112550, “Optimization of the antimicrobial peptide Bac7 by deep mutational scanning” (BMC Biology, 2022)

The sequences below were run on Escherichia coli TOP10 (assay: shrunken log2 fold change of peptide-encoding DNA abundance (4.5 h post-induction vs induction); higher = less antimicrobial activity (less host growth inhibition)). Conditions: time post-induction: 4.5 h; library: site-saturation at positions 5, 18, 19, 20.
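Note: peptides expressed intracellularly from a pBAD plasmid library in pooled LB shake-flask culture, induced with 0.3% L-arabinose, DNA abundance read by NGS, three biological replicates, DESeq2 with apeglm shrinkage.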

Point of comparison: RRIRSRPPRLPRPRPRPQGAPRP, “shrunken log2 fold change” value 2.34. Against it:
- RRIRMRPPRLPRPRPRPEWDPRP — higher, 3.48
- RRIRIRPPRLPRPRPRPVHMPRP — lower, -0.315
- RRIRYRPPRLPRPRPRPNVSPRP — lower, -0.0178
- RRIRFRPPRLPRPRPRPPECPRP — lower, -0.0973
- RRIRKRPPRLPRPRPRPRDKPRP — lower, 0.116
- RRIRARPPRLPRPRPRPQVNPRP — lower, -0.196
- RRIRFRPPRLPRPRPRPFSCPRP — lower, -0.599
- RRIRLRPPRLPRPRPRPKNVPRP — lower, -0.124
- RRIRKRPPRLPRPRPRPKELPRP — lower, 0.566
- RRIRKRPPRLPRPRPRPWVGPRP — lower, 0.0422
- RRIRHRPPRLPRPRPRPVTTPRP — lower, 0.0639
- RRIRTRPPRLPRPRPRPRTFPRP — lower, 0.0284
- RRIRQRPPRLPRPRPRPMFGPRP — lower, 0.0107
- RRIRVRPPRLPRPRPRPEVYPRP — lower, -0.0457
- RRIRQRPPRLPRPRPRPLNTPRP — lower, -0.937
- RRIRDRPPRLPRPRPRPLKKPRP — lower, 0.31
- RRIRMRPPRLPRPRPRPIDKPRP — lower, -0.197
- RRIRERPPRLPRPRPRPAKWPRP — lower, 0.0478
- RRIRLRPPRLPRPRPRPNYMPRP — lower, -0.251
- RRIRKRPPRLPRPRPRPCMIPRP — lower, 0.0302
- RRIRRRPPRLPRPRPRPCVPPRP — lower, -0.149
- RRIRCRPPRLPRPRPRPFNPPRP — lower, -0.558
- RRIRHRPPRLPRPRPRPLFQPRP — lower, -0.108
- RRIRDRPPRLPRPRPRPSGNPRP — lower, 0.499
- RRIRRRPPRLPRPRPRPCYPPRP — lower, -0.0837
- RRIRYRPPRLPRPRPRPAQRPRP — lower, -0.0772
- RRIRSRPPRLPRPRPRPENFPRP — lower, -0.0342
- RRIRARPPRLPRPRPRPYCAPRP — lower, -0.277
- RRIRIRPPRLPRPRPRPNEYPRP — lower, -0.182
- RRIRSRPPRLPRPRPRPPFFPRP — lower, 0.143
- RRIRWRPPRLPRPRPRPTSGPRP — lower, 0.593
- RRIRQRPPRLPRPRPRPKDTPRP — lower, -0.0272
- RRIRGRPPRLPRPRPRPLWFPRP — lower, 0.183
- RRIRIRPPRLPRPRPRPEKYPRP — lower, -0.423
- RRIRDRPPRLPRPRPRPHIAPRP — lower, 0.0931
- RRIRTRPPRLPRPRPRPKMQPRP — lower, 0.384
- RRIRGRPPRLPRPRPRPPLLPRP — lower, 0.633
- RRIRQRPPRLPRPRPRPRDIPRP — lower, 0.0657
- RRIRRRPPRLPRPRPRPWKQPRP — lower, -0.0204
- RRIRCRPPRLPRPRPRPGQTPRP — lower, 0.0466
- RRIRPRPPRLPRPRPRPPPGPRP — lower, 0.816
- RRIRTRPPRLPRPRPRPFHYPRP — lower, -0.0376
- RRIRKRPPRLPRPRPRPLILPRP — lower, -0.265
- RRIRRRPPRLPRPRPRPYYKPRP — lower, -0.677
- RRIRYRPPRLPRPRPRPKFPPRP — lower, -1.01
- RRIRRRPPRLPRPRPRPAYRPRP — lower, 0.108
- RRIRQRPPRLPRPRPRPSICPRP — lower, -0.443
- RRIRVRPPRLPRPRPRPGVRPRP — lower, 0.188
- RRIRMRPPRLPRPRPRPLEFPRP — lower, -0.102
- RRIRERPPRLPRPRPRPELGPRP — lower, 0.0169
- RRIRRRPPRLPRPRPRPAAHPRP — lower, 0.361
- RRIRARPPRLPRPRPRPGWTPRP — lower, 0.525
- RRIRFRPPRLPRPRPRPPGDPRP — lower, 0.58
- RRIRQRPPRLPRPRPRPWNNPRP — lower, 0.079
- RRIRLRPPRLPRPRPRPFYIPRP — lower, -0.865
- RRIRLRPPRLPRPRPRPCPVPRP — lower, -0.393
- RRIRNRPPRLPRPRPRPHWLPRP — lower, -0.101
- RRIRGRPPRLPRPRPRPKKCPRP — lower, 0.544
- RRIRSRPPRLPRPRPRPMKSPRP — lower, 0.328
- RRIRIRPPRLPRPRPRPGLHPRP — lower, -0.000332
- RRIRKRPPRLPRPRPRPENFPRP — lower, -0.00264
- RRIRHRPPRLPRPRPRPRNPPRP — lower, 0.0812
- RRIRERPPRLPRPRPRPWIAPRP — lower, -0.0555
- RRIRNRPPRLPRPRPRPNAYPRP — lower, -0.0738
- RRIRFRPPRLPRPRPRPFANPRP — lower, -0.124
- RRIRWRPPRLPRPRPRPPPFPRP — lower, 0.22
- RRIRPRPPRLPRPRPRPNFTPRP — lower, 0.0917
- RRIRDRPPRLPRPRPRPGCEPRP — lower, 0.852
- RRIRIRPPRLPRPRPRPLAQPRP — lower, -0.116
- RRIRGRPPRLPRPRPRPCKRPRP — lower, 0.0886
- RRIRHRPPRLPRPRPRPNWKPRP — lower, -0.0172
- RRIRARPPRLPRPRPRPRNTPRP — lower, 0.146
- RRIRCRPPRLPRPRPRPSHNPRP — lower, -0.628
- RRIRMRPPRLPRPRPRPGPWPRP — lower, 0.89
- RRIRHRPPRLPRPRPRPQYHPRP — lower, -0.972
- RRIRVRPPRLPRPRPRPRAGPRP — lower, 0.488
- RRIRGRPPRLPRPRPRPYVIPRP — lower, -0.0899
- RRIRQRPPRLPRPRPRPGSLPRP — lower, 0.143
- RRIRWRPPRLPRPRPRPTRKPRP — lower, -0.0294
- RRIRARPPRLPRPRPRPFMTPRP — lower, 0.178
- RRIRQRPPRLPRPRPRPCTTPRP — lower, -0.104
- RRIRHRPPRLPRPRPRPICSPRP — lower, 0.0153
- RRIRTRPPRLPRPRPRPWTGPRP — lower, -0.352
- RRIRCRPPRLPRPRPRPYFGPRP — lower, -0.0436
- RRIRYRPPRLPRPRPRPGDMPRP — lower, -0.464
- RRIRCRPPRLPRPRPRPTEQPRP — lower, -0.304
- RRIRERPPRLPRPRPRPCPRPRP — lower, -0.021
- RRIRDRPPRLPRPRPRPRIDPRP — lower, 0.0784
- RRIRERPPRLPRPRPRPRFFPRP — lower, -0.00349
- RRIRSRPPRLPRPRPRPVPFPRP — lower, -0.237
- RRIRHRPPRLPRPRPRPTSGPRP — lower, -0.0493
- RRIRPRPPRLPRPRPRPTWHPRP — lower, 0.316
- RRIRGRPPRLPRPRPRPGFIPRP — lower, 0.0369
- RRIRMRPPRLPRPRPRPHHIPRP — lower, -0.165
- RRIRYRPPRLPRPRPRPWVEPRP — lower, 0.0344
- RRIRHRPPRLPRPRPRPCPKPRP — lower, 0.03
- RRIRSRPPRLPRPRPRPARRPRP — lower, 0.0588
- RRIRLRPPRLPRPRPRPGARPRP — lower, 0.369
- RRIRDRPPRLPRPRPRPVFMPRP — lower, 0.11
- RRIRDRPPRLPRPRPRPNNVPRP — lower, -0.243
- RRIRDRPPRLPRPRPRPSPCPRP — lower, -0.0819
- RRIRTRPPRLPRPRPRPMRWPRP — lower, 0.313
- RRIRVRPPRLPRPRPRPERRPRP — lower, 0.13
- RRIRHRPPRLPRPRPRPFYSPRP — lower, -0.00674
- RRIRGRPPRLPRPRPRPECGPRP — lower, 1.71
- RRIRGRPPRLPRPRPRPGMSPRP — lower, 0.417
- RRIRLRPPRLPRPRPRPNICPRP — lower, -0.132
- RRIRVRPPRLPRPRPRPWGKPRP — lower, -0.0952
- RRIRFRPPRLPRPRPRPYGKPRP — lower, -0.514
- RRIRPRPPRLPRPRPRPPPYPRP — lower, 0.0995
- RRIRCRPPRLPRPRPRPASTPRP — lower, -0.481
- RRIRNRPPRLPRPRPRPKKIPRP — lower, -0.187
- RRIRWRPPRLPRPRPRPTNCPRP — lower, -0.0666
- RRIRLRPPRLPRPRPRPCDGPRP — lower, -0.181
- RRIRDRPPRLPRPRPRPTLSPRP — lower, 0.262
- RRIRIRPPRLPRPRPRPNIWPRP — lower, 0.127
- RRIRTRPPRLPRPRPRPHKWPRP — lower, -0.029
- RRIRLRPPRLPRPRPRPDSYPRP — lower, 0.00388
- RRIRIRPPRLPRPRPRPWMYPRP — lower, -0.184
- RRIRVRPPRLPRPRPRPVWPPRP — lower, 0.257
- RRIRDRPPRLPRPRPRPTTDPRP — lower, 0.547
- RRIRDRPPRLPRPRPRPRPEPRP — lower, 0.538
- RRIRCRPPRLPRPRPRPPRTPRP — lower, 0.818
- RRIRERPPRLPRPRPRPQKRPRP — lower, 0.462
